This is an account of results in doi:10.1101/2022.08.17.504273 (bioRxiv, 2022).

B4: GST-CC1B (GST-Psc-DCTN1(residues 350-547)-GFP-6xHis) (domain or fragment)
chain: GSDGAASSYQLKQLEEQNARLKDALVRMRDLSSSEKQEHVKLQKLMEKKNQELEVVRQQRERLQEELSQAESTIDELKEQVDAALGAEEMVEMLTDRNLNLEEKVRELRETVGDLEAMNEMNDELQENARETELELREQLDMAGARVREAQKRVEAAQETVADYQQTIKKYRQLTAHLQDVNRELTNQQEASVERQQQ
B5: JIP3^1–560 (domain or fragment)
chain: MMEIQMDEGGGVVVYQDDYCSGSVMSERVSGLAGSIYREFERLIHCYDEEVVKELMPLVVNVLENLDSVLSENQEHEVELELLREDNEQLLTQYEREKALRRQAEEKFIEFEDALEQEKKELQIQVEHYEFQTRQLELKAKNYADQISRLEERESEMKKEYNALHQRHTEMIQTYVEHIERSKMQQVGGNSQTESSLPGRRKERPTSLNVFPLADGTVRAQIGGKLVPAGDHWHLSDLGQLQSSSSYQCPQDEMSESGQSSAAATPSTTGTKSNTPTSSVPSAAVTPLNESLQPLGDYGVGSKNSKRAREKRDSRNMEVQVTQEMRNVSIGMGSSDEWSDVQDIIDSTPELDMCPETRLDRTGSSPTQGIVNKAFGINTDSLYHELSTAGSEVIGDVDEGADLLGEFSVRDDFFGMGKEVGNLLLENSQLLETKNALNVVKNDLIAKVDQLSGEQEVLRGELEAAKQAKVKLENRIKELEEELKRVKSEAIIARREPKEEAEDVSSYLCTESDKIPMAQRRRFTRVEMARVLMERNQYKERLMELQEAVRWTEMIRASRE
B6: dynein light intermediate chain (natural protein)
chain: MAPVGVEKKLLLGPNGPAVAAAGDLTSEEEEGQSLWSSILSEVSTRARSKLPSGKNILVFGEDGSGKTTLMTKLQGAEHGKKGRGLEYLYLSVHDEDRDDHTRCNVWILDGDLYHKGLLKFAVSAESLPETLVIFVADMSRPWTVMESLQKWASVLREHIDKMKIPPEKMRELERKFVKDFQDYMEPEEGCQGSPQRRGPLTSGSDEENVALPLGDNVLTHNLGIPVLVVCTKCDAVSVLEKEHDYRDEHLDFIQSHLRRFCLQYGAALIYTSVKEEKNLDLLYKYIVHKTYGFHFTTPALVVEKDAVFIPAGWDNEKKIAILHENFTTVKPEDAYEDFIVKPPVRKLVHDKELAAEDEQVFLMKQQSLLAKQPATPTRASESPARGPSGSPRTQGRGGPASVPSSSPGTSVKKPDPNIKNNAASEGVLASFFNSLLSKKTGSPGSPGAGGVQSTAKKSGQKTVLSNVQEELDRMTRKPDSMVTNSSTENEA
B9: LIS1 (full length human) (natural protein)
chain: MVLSQRQRDELNRAIADYLRSNGYEEAYSVFKKEAELDVNEELDKKYAGLLEKKWTSVIRLQKKVMELESKLNEAKEEFTSGGPLGQKRDPKEWIPRPPEKYALSGHRSPVTRVIFHPVFSVMVSASEDATIKVWDYETGDFERTLKGHTDSVQDISFDHSGKLLASCSADMTIKLWDFQGFECIRTMHGHDHNVSSVAIMPNGDHIVSASRDKTIKMWEVQTGYCVKTFTGHREWVRMVRPNQDGTLIASCSNDQTVRVWVVATKECKAELREHEHVVECISWAPESSYSSISEATGSETKKSGKPGPFLLSGSRDKTIKMWDVSTGMCLMTLVGHDNWVRGVLFHSGGKFILSCADDKTLRVWDYKNKRCMKTLNAHEHFVTSLDFHKTAPYVVTGSVDQTVKVWECR

The target in series [1] is B6. Briefly: cryo-EM structure.
The target of series [2] is T1, mouse JIP3^185–505 (JIP3 186-505) (mouse, UniProt Q9ESN9-5 186-505).
T1 sequence: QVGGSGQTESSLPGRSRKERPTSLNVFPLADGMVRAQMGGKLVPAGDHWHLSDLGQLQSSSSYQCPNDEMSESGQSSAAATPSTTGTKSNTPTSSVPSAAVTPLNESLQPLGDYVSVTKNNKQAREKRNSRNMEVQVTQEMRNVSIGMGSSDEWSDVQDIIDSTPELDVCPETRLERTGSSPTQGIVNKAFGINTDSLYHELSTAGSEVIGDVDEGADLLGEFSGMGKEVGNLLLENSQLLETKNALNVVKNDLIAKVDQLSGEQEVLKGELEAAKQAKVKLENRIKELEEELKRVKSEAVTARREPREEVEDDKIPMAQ
Briefly: pull-down.

Series [3] has as its target T2, mouse JIP3 186-505_L383A/E386A (mouse, UniProt Q9ESN9-5 186-505, L383A | E386A).
T2 sequence: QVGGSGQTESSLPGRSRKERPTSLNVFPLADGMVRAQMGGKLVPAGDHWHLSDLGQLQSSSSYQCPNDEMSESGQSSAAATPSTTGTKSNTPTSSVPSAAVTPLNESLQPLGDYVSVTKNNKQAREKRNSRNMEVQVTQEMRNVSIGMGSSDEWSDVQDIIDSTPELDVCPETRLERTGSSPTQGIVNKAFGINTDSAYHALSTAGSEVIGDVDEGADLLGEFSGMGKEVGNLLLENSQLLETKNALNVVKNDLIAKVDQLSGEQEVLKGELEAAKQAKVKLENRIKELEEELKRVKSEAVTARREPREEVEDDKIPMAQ
In words: pull-down.

For series [4], the target named is B4. In words: pull-down.
The series “LIS1 (full length human)” has as its target B9. In words: pull-down.
Series [5] addresses dynactin pointed end complex (ZZ-TEV-Arp11, p62, p25, p27) (human, UniProt Q9NZ32;Q9UJW0-1;Q9BTE1;O00399). In words: SEC. A general note: SEC sorts molecules by how far they enter the pores of the column.
The target in the series “JIP3^1–560” is B5. Briefly: cryo-EM structure.
For series [6], the target named is GST-CC1A/B (GST-Psc-DCTN1(residues 214-547)-GFP-6xHis) (human (by the printed UniProt entry), UniProt Q14203-1 214-547). Briefly: pull-down.
The series “SEC-MALS” concerns the molecule itself. Briefly: SEC-MALS.
In series [7] the target is T3, JIP3 RH1 domain (JIP3 1-108) (mouse, UniProt Q9ESN9-5 1-108).
T3 sequence: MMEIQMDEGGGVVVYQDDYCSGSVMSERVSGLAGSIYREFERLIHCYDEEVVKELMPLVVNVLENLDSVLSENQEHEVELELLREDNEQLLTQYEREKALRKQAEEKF
Briefly: pull-down.

The series “cryo-EM structure” concerns the molecule itself. In words: cryo-EM structure.

The term stoichiometry N denotes a count of units in the complex or per binding partner.

dynactin pointed end complex (ZZ-TEV-Arp11, p62, p25, p27), sequence (Q9NZ32 whole entry, chain 1 of 4): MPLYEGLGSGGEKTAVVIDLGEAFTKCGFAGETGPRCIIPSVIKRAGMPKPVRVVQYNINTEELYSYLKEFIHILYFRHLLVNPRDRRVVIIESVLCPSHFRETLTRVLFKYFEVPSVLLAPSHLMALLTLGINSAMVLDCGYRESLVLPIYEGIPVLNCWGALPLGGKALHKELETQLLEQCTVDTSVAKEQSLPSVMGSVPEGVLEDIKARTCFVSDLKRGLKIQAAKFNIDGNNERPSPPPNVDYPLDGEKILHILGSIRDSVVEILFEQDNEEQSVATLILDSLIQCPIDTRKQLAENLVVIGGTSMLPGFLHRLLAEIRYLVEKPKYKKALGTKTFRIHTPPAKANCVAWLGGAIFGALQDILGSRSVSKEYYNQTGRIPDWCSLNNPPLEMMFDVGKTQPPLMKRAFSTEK
dynactin pointed end complex (ZZ-TEV-Arp11, p62, p25, p27), sequence (Q9UJW0 whole entry, chain 2 of 4): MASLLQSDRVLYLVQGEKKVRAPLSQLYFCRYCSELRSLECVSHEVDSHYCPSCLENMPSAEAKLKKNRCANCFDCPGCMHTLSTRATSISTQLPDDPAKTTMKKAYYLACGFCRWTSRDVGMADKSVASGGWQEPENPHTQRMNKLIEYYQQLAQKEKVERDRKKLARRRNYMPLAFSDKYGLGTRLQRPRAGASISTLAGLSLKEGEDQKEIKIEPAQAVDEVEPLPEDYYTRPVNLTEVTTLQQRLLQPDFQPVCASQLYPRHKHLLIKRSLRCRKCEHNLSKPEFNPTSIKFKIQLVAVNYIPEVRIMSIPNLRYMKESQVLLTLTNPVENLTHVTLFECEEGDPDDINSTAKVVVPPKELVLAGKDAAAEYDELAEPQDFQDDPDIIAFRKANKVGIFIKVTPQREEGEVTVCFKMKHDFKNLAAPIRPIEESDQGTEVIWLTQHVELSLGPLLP
dynactin pointed end complex (ZZ-TEV-Arp11, p62, p25, p27), sequence (Q9BTE1 whole entry, chain 3 of 4): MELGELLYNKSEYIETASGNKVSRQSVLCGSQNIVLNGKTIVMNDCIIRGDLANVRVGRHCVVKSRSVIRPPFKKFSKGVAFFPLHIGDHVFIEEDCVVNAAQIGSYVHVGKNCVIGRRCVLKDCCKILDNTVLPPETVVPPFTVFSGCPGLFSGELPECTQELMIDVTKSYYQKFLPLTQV
dynactin pointed end complex (ZZ-TEV-Arp11, p62, p25, p27), sequence (O00399 whole entry, chain 4 of 4): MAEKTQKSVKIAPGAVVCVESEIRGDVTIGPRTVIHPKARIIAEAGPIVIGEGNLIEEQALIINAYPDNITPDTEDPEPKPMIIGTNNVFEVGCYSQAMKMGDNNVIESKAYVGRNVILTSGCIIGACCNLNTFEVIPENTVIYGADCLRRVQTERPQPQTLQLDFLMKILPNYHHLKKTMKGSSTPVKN

B1: JIP3^1–185 (domain or fragment)
chain: MMEIQMDEGGGVVVYQDDYCSGSVMSERVSGLAGSIYREFERLIHCYDEEVVKELMPLVVNVLENLDSVLSENQEHEVELELLREDNEQLLTQYEREKALRKQAEEKFIEFEDALEQEKKELQIQVEHYEFQTRQLELKAKNYADQISRLEERESEMKKEYNALHQRHTEMIQTYVEHIERSKMQ
Turning to B1, in [1], the binding result was “binds”.

B2: human Arf6 (12-175_Q67L) (domain or fragment)
chain: KEMRILMLGLDAAGKTTILYKLKLGQSVTTIPTVGFNVETVTYKNVKFNVWDVGGLDKIRPLWRHYYTGTQGLIFVVDCADRDRIDEARQELHRIINDREMRDAIILIFANKQDLPDAMKPHEIQEKLGLTRIRDRNWYVQPSCATSGDGLYEGLTWLTSNYKS
Turning to B2, the binding result in series [2] and in series [3] was “binds” throughout.

B3: LIS1-N (residues 1-90) (domain or fragment)
chain: MVLSQRQRDELNRAIADYLRSNGYEEAYSVFKKEAELDVNEELDKKYAGLLEKKWTSVIRLQKKVMELESKLNEAKEEFTSGGPLGQKRD
On to B3, for which, in series [4], the binding result is reported as “binds”.

Regarding B4, in the series with LIS1 (full length human), the binding result is on record as “binds”.

Turning to B5, the binding result in series [5] was “binds”.

With B6, the binding result in the series with JIP3^1–560 is “binds”.

B7: MBP-DIC-N (dynein intermediate chain 1-76) (domain or fragment)
chain: MSDKSELKAELERKKQRLAQIREEKKRKEEERKKKETDQKKEAVAPVQEESDLEKKRREAEALLQSMGLTPESPIV
As to B7, the binding result in series [6] and in series [4] was “binds” throughout.

B8: GCN4-WD40-SNAP (other)
chain: GSGSVKQLEDKVEELLSKNAHLENEVARLKKLVSGGPLGQKRDPKEWIPRPPEKYALSGHRSPVTRVIFHPVFSVMVSASEDATIKVWDYETGDFERTLKGHTDSVQDISFDHSGKLLASCSADMTIKLWDFQGFECIRTMHGHDHNVSSVAIMPNGDHIVSASRDKTIKMWEVQTGYCVKTFTGHREWVRMVRPNQDGTLIASCSNDQTVRVWVVATKECKAELREHEHVVECISWAPESSYSSISEATGSETKKSGKPGPFLLSGSRDKTIKMWDVSTGMCLMTLVGHDNWVRGVLFHSGGKFILSCADDKTLRVWDYKNKRCMKTLNAHEHFVTSLDFHKTAPYVVTGSVDQTVKVWECR
Regarding B8, in the series “SEC-MALS”, the “stoichiometry N” value came out at 2.

With SVQEKKKSTIWQFFSRLFSSSSS (domain or fragment) [GST-JIP3^563–585 (JIP3^helix construct)], in series [7], the binding result is recorded as “binds”.

For B9, the binding result in “cryo-EM structure” is reported as “binds”.

B10: LIS1^mut (natural protein)
chain: MVASQEARDELNRAIADYLRSNGYEEAYSVFKKEAELDVNEELDKEYAGLLEEEWAAVAELAEEVMELRSKLNEAKEEFTSGGPLGQKRDPKEWIPRPPEKYALSGHRSPVTRVIFHPVFSVMVSASEDATIKVWDYETGDFERTLKGHTDSVQDISFDHSGKLLASCSADMTIKLWDFQGFECIRTMHGHDHNVSSVAIMPNGDHIVSASRDKTIKMWEVQTGYCVKTFTGHREWVRMVRPNQDGTLIASCSNDQTVRVWVVATKECKAELREHEHVVECISWAPESSYSSISEATGSETKKSGKPGPFLLSGSRDKTIKMWDVSTGMCLMTLVGHDNWVRGVLFHSGGKFILSCADDKTLRVWDYKNKRCMKTLNAHEHFVTSLDFHKTAPYVVTGSVDQTVKVWECR
Turning to B10, the “stoichiometry N” value in “SEC-MALS” was 2.
